# B1: LINE1-full (parent)
# chain: UACGUAGGUGGUUUUCCCCUGAUAGUGCUAAGGGGGCCUGGAAGUUUGGACUGGGCAGAGCUCAACACAGCGUGGCAAAGUGGCUGUGGCUAGACUGCCUCUCUGGAUUCCUCGUCACUCAGCAGGGCAUCUCUGAGAGAAAUGCC
# Variants of: B1
# Test: self-cleavage, relative activity (ratio to wild type); higher = more cleavage; in vitro, sequencing; the parent is a self-cleaving ribozyme
row,Variant,self-cleavage
1,U20A A50G,1.2
2,U20C U112C,1.4
3,C56U A59U,0.11
4,A2C A141G,0.9
5,A59U G126A,0.59
6,A59U G89A,0.04
7,U13A A69C,0.08
8,U29A U143C,1.16
9,U134G G137U,0.94
10,G36A A69G,0.34
11,A69G A117U,0.64
12,A24U U104C,1.25
13,G36A U115A,1.39
14,G34C A124U,1.91
15,C17G A59U,0.55
16,A67U G105U,0.12
17,U45C A59C,0.79
18,G89C G144A,0.05
19,C51U U91A,0.84
20,A6G A57G,0.64
21,U104A U115A,1.13
22,C38U A107G,1.63
23,U39C G54A,0.58
24,U47C U100A,1.51

row,Variant,self-cleavage
1,A43C C99U,0.98
2,U62C A138G,0.06
3,U13C G33U,1.64
4,A117U G135A,1.79
5,G27C A117G,0.95
6,U39C G80A,1.06
7,U73A A129G,1.67
8,U47A A94G,0.23
9,U39C A138G,1.29
10,G7U U112C,1.15
11,G93U U102A,0.02
12,U9C A124U,1.26
13,U46A U130G,1.39
14,U29C U85A,0.12
15,U45C U46C,1.84
16,A50U U143C,1.16
17,U26A U134C,0.9
18,U13A A79U,0.96
19,U5A U112C,0.71
20,G82A A107G,1.73
21,A50C C103U,1.37
22,A42U A129U,0.86
23,G54U U96C,0.07
24,G48A U132C,1.29

row,Variant,self-cleavage
1,A31G U109C,0.79
2,A22G U47A,1.15
3,A30U U100A,0.9
4,G53U U119A,1.33
5,A64U C95U,0.07
6,U13C G21U,1
7,G36A U46C,1.32
8,U73A A138G,1.75
9,G54U A69G,0.17
10,U5C U134C,0.33
11,A31U G33C,0.81
12,U45A U130C,1.86
13,C37U U143C,0.84
14,A65U C146U,0.16
15,U87A U119G,0.07
16,A79G G89C,0.05
17,C38U C84G,0.09
18,U26G G125U,1.59
19,G36C U104A,1.43
20,U104C G144U,2.06
21,U12A A50G,1.45
22,U45G A77U,1.15
23,A2G U52A,1.11
24,G21A U119C,1.25

row,Variant,self-cleavage
1,A57G A138G,1.12
2,U13C U85A,0.13
3,U29C,1.28
4,U20G A140G,0.96
5,A121U U134C,1.35
6,U13A U73A,1.04
7,U23A G54A,0.96
8,U45C U100C,1.93
9,A65G U119G,0
10,U104A A141C,0.47
11,U85G U108C,0.22
12,A65G G97A,0.03
13,C3A U115C,1.22
14,U102C A129G,1.51
15,U20G U134C,0.64
16,U9A U132C,1.04
17,U15C A124U,1.32
18,C56U A138U,0.1
19,A65G G144U,0.06
20,U96C A129G,0.11
21,G32A G82A,2.01
22,U20C C101U,1.11
23,A24C G139A,1.45
24,A59G,0.09

row,Variant,self-cleavage
1,G32U U96C,0.08
2,A31U U62C,0.12
3,U1C C51U,0.71
4,A6U A142G,0.81
5,A69G A142U,0.35
6,C19U A94G,0.29
7,A22G A30U,0.58
8,A77G A92G,0.2
9,U15A U26C,0.86
10,U52C A77U,1.07
11,U15C U109C,1.43
12,A138G C145A,2.76
13,G27A G144A,1.08
14,A129U A136U,1.42
15,G58A U104A,0.03
16,U23A U108C,1.45
17,U73C G105U,1.32
18,A92G U112C,0.13
19,G72A U85A,0.07
20,A30G U73A,1.19
21,U45A U102A,1.36
22,C99U U134A,0.37
23,G44A U91C,0.65
24,A2C A121G,0.95

row,Variant,self-cleavage
1,A2U U15G,0.51
2,U15A,0.96
3,U47C U62C,0.12
4,U12C A142C,1.38
5,A64C U85C,0.02
6,U29C G127A,0.64
7,G44A U134G,1.02
8,U46C U134A,1.1
9,G4C U130A,1.1
10,U85C U134G,0.14
11,G60A U102C,0.01
12,A69U A78G,0.04
13,U9C A65U,0.32
14,U26C U104A,1.13
15,A136G G144A,0.88
16,U20A U132C,1.49
17,U46A G137A,0.98
18,G4C U100C,1.81
19,U26C C38A,1.28
20,G80A U81C,1.98
21,U13C A69U,0.1
22,G54U C71U,0.16
23,U39A A43C,0.66
24,U100A U143C,0.86

row,Variant,self-cleavage
1,U12G U119A,1.32
2,U13C U115A,1.3
3,U104C U109A,0.65
4,U73C U81C,1.47
5,G89U U109A,0.02
6,U73A U87C,0.06
7,U13A G137A,1.13
8,U87A A107U,0.09
9,A30G C99A,0.61
10,U15C C61U,0.05
11,U20C C131U,1.18
12,G54A A136U,0.67
13,C71U U102C,0.18
14,A67U A77U,0.04
15,G54U C90A,0.06
16,C19G U85C,0.24
17,A24U A64G,0.23
18,A31G U134A,0.45
19,C101A A129U,2.2
20,A117U U134A,1.54
21,U112A U119C,2.45
22,U39C G58U,0.03
23,U15C A79U,1.88
24,A57U G83A,0.03

row,Variant,self-cleavage
1,U20A G32C,1.33
2,U52G A136G,0.88
3,G125A G144A,1.33
4,G27A U132C,1.27
5,A22U A136U,1.04
6,A42G A92U,0.72
7,A65G A142C,0.08
8,A43C A94G,0.66
9,G82U A141G,1.54
10,U14C A50U,1.03
11,U100C G139U,2.03
12,G60A A94G,0
13,G53A C61U,0.03
14,U15A U39G,1.02
15,G70U A138G,0.1
16,U5A A121G,0.84
17,A69G G74A,0.49
18,A24G U143C,1.12
19,A77U A141U,1.07
20,C113G U119A,1.38
21,U87G U143C,0.18
22,G58C G72U,0.02
23,U112A A117G,1.82
24,C90U U104C,0.04

row,Variant,self-cleavage
1,A57G U91A,0.34
2,U13C G72A,1.22
3,U39C G106C,0.84
4,G144C,1.34
5,A6G A121G,1.14
6,U26A U104A,0.98
7,G8A U62G,0
8,G4U C61U,0.08
9,A2C U26C,1.05
10,U108C A117G,1.62
11,U108C A117C,2.24
12,U119A U134A,1.42
13,C113U C123U,1.35
14,U52C A92G,0.1
15,U23C A42C,0
16,A69U U130A,0.09
17,A59G G80A,0.08
18,U23C A77G,1.24
19,A79G U87C,0.17
20,A94G U130C,0.36
21,G8U C37U,1.51
22,A59G U108C,0.11
23,U20C C110A,0.41
24,G54U U104C,1.28

row,Variant,self-cleavage
1,U26G U104C,0.81
2,U52C A129G,1.23
3,U29C C145U,1.28
4,G54A U119C,1.35
5,A117U A136U,1.67
6,U9A U15A,1.07
7,U45G A92G,0.09
8,U100G G114A,1.77
9,U47C G60A,0.03
10,U23A U47A,1.91
11,U47A A57G,0.54
12,G58A G144A,0.04
13,A77U G83A,0.74
14,C37U G86A,0.1
15,C3U U102A,1.1
16,U45A A78G,1.11
17,U26A G74U,1.94
18,A24U A69G,0.53
19,U46C A69U,0.07
20,C3U U62G,0.07
21,U52G G144A,1.34
22,U14G C118U,1.84
23,U102C G126A,1.65
24,U109C C123U,1.22

row,Variant,self-cleavage
1,U12A U73C,1.11
2,U20C U81C,1.13
3,A24G A92U,1.34
4,U73C,1.72
5,U13A U109C,1.17
6,A94G C95A,0.07
7,A69C C71A,0.16
8,U46A A136G,1.48
9,U15C U29A,1.27
10,U26C A124G,0.64
11,U12A U47A,0.67
12,A6G U14C,0.61
13,A2U A141G,1
14,A59G U119A,0.09
15,A24U U108C,1.33
16,A24G A78U,2.33
17,G21U A42G,0.8
18,G35C U143G,0.86
19,G49A A129G,1.69
20,U29C A78G,1.17
21,A42U C113A,0.98
22,A78G C111U,0.93
23,C98U A141G,0.45
24,G35C A141G,0.61

row,Variant,self-cleavage
1,C37G A57G,0.73
2,U96C U104C,0.13
3,U26G C38U,0.91
4,U12G G55A,0.15
5,C63U U102A,0.33
6,C63U U102C,0.28
7,U104C U134C,1.62
8,C37A A136G,1.04
9,A42C U102C,1.13
10,U52A U115C,1.42
11,U15A G60U,0.07
12,U62A C71G,0.05
13,U14C U102C,1.09
14,U14A U104A,1.16
15,C101U U115C,1.49
16,U12G A57G,1.42
17,A6G A77U,0.92
18,U13G A129G,1.46
19,A59U U102C,0.94
20,G58A A142G,0
21,U13G A77U,1.31
22,A64G U96A,0.07
23,A6G G40A,0.84
24,U46G U132A,1.4

row,Variant,self-cleavage
1,A57U A138U,0.12
2,U39A U62C,0.05
3,A67G A92G,0.09
4,U13G U104A,1.39
5,U130C,1.52
6,C123U U132A,1.13
7,C113A U115C,1.5
8,C16A U96C,0.04
9,U1C A42G,0.92
10,U112C G126A,1.64
11,A50U C110A,1.53
12,U20A U108C,1.95
13,G25U A30G,1.27
14,U73C A124G,0.64
15,U26C A136U,1.82
16,A124U A129U,0.9
17,A30G C123A,1
18,A67G G125U,0.39
19,U134C C145U,1.1
20,U47C U96G,0.05
21,U1C A43G,0.79
22,U62C G82A,0.04
23,A42G C103A,1.49
24,G8C A121C,1.75

row,Variant,self-cleavage
1,A57U C66G,0.05
2,A57G A94U,0.19
3,U23G U115C,1.29
4,U12G U23A,0.85
5,C19A A69G,0.42
6,U39A A141U,1.45
7,U12G G33A,1.47
8,A31U U130C,1.23
9,A6G A138G,1.11
10,A6G A138U,0.67
11,U29G G70A,0.27
12,G27A A59G,0.13
13,U9C U96A,0.15
14,A69U A138U,0.09
15,A124G C128U,0.53
16,U115A C128U,1.23
17,A117G A124G,0.69
18,G27A A136G,0.93
19,U39A U119A,1.46
20,A50G A121G,1.11
21,U14A U96C,0.04
22,U52A C113U,1.41

# — the RNAGym collection of RNA variant scans (doi:10.7554/elife.90254)
